Like-named read-outs stand apart in the source and are kept apart here. Values belong to the molecule of their own block, whether it stands above or below them. Square brackets hold non-standard residues; d marks the D form. Ends that are not written are not given here. sY = N[C@@H](Cc1ccc(OS(=O)(=O)O)cc1)C(=O)O
Legend:
[1] = target: RANTES (E66S mutant of human RANTES) (human); assay: 1H-15N-HSQC, intensities of monomer and dimer cross-peaks
[2] = target: RANTES (E66S mutant of human RANTES) (human); assay: as above; remark: listed apart in the source
[3] = target: RANTES (E66S mutant of human RANTES) (human); assay: as above; remark: listed apart in the source
[4] = target: RANTES (E66S mutant of human RANTES) (human); assay: as above; remark: listed apart in the source
[5] = target: RANTES (E66S mutant of human RANTES) (human); assay: as above; remark: listed apart in the source
[6] = target: CCR5 N-terminal peptide (Nt-CCR5) N-terminus (Homo sapiens) (UniProt P51681); settings: cited from earlier work
CCR5 N-terminal peptide (Nt-CCR5) N-terminus (Homo sapiens), sequence (P51681 1-27): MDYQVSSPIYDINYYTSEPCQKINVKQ

[7] = target: T1, RANTES (Homo sapiens, UniProt P13501, E89S); assay: 1H-15N-HSQC NMR titration of U-15N-RANTES; assay type: binding; settings: 293 K, pH 4.8; peptide up to 2.9 mM, 64 molar excess relative to RANTES; KD could not be extracted
T1 sequence (P13501 24-91 E89S): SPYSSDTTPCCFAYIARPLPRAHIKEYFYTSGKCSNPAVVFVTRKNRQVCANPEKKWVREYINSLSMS

[8] = target: RANTES (E66S mutant of human RANTES) (human); assay: NMR titration
[9] = target: RANTES (E66S mutant of human RANTES) (human); assay: NMR titration; remark: listed apart in the source
[10] = target: RANTES (E66S mutant of human RANTES) (human); assay: NMR titration; remark: listed apart in the source

ratio of monomer/dimer peak intensities, IM/ID [1]: 0.2
ratio of monomer/dimer peak intensities, IM/ID [2]: 0.13
ratio of monomer/dimer peak intensities, IM/ID [3]: 0.45
stoichiometry N [3]: 2
ratio of monomer/dimer peak intensities, IM/ID [4]: 1.57
ratio of monomer/dimer peak intensities, IM/ID [5]: < 0.1
Molecule: RANTES (E66S mutant of human RANTES) (ligand)

Molecule: RANTES (from UniProt P13501)
Kd [6]: 1 µM

Saturation of RANTES chemical shift changes on titration [7]: saturation was not achieved
Molecule: TRSQKEGLHYTSSSHFPYSQYQ [ECL2]

Kd [8]: 84 µM
Kd [9]: 16 µM
Kd [10]: 100 µM
Molecule: MDYQVSSPI[sY]DIN[sY]YTSEPAQKINVKQ [Nt-CCR5 peptide (CCR5 residues 1-27), sulfated at Y10 and Y14]
